Measured values from patent US12679878B2, “CRF2 receptor agonists and their use in therapy” (SANOFI, priority 2020, dated 2026).
Starred links: 1 amine or outer side, 2 acyl side, 3 side chain; linkers in the order of their positions; H or OH if unused. Non-standard residues stand in square brackets, D forms with d. Groups on a side chain read outwards from the residue. No end group written: not given here. *: point of attachment. C18 diacid = O=C(O)CCCCCCCCCCCCCCCCC(=O)*; γGlu = O=C(O)[C@H](CCC(=O)[*:2])N[*:1]; Palmitoyl = CCCCCCCCCCCCCCCC(=O)*; AEEA = NCCOCCOCC(=O)O; Aib = CC(C)(N)C(=O)O

B1: SEQ ID NO: 137 (peptide)
peptide: IVLSLD[dV]PIKLK([AEEA-AEEA-γGlu-C18 diacid])QILLKQERQKKQREQAEKNKQILEQV-NH2
modifications: N-terminus assumed
SMILES: CC[C@H](C)[C@H](N)C(=O)N[C@H](C(=O)N[C@@H](CC(C)C)C(=O)N[C@@H](CO)C(=O)N[C@@H](CC(C)C)C(=O)N[C@@H](CC(=O)O)C(=O)N[C@@H](C(=O)N1CCC[C@H]1C(=O)N[C@H](C(=O)N[C@@H](CCCCN)C(=O)N[C@@H](CC(C)C)C(=O)N[C@@H](CCCCNC(=O)COCCOCCNC(=O)COCCOCCNC(=O)CC[C@H](NC(=O)CCCCCCCCCCCCCCCCC(=O)O)C(=O)O)C(=O)N[C@@H](CCC(N)=O)C(=O)N[C@H](C(=O)N[C@@H](CC(C)C)C(=O)N[C@@H](CC(C)C)C(=O)N[C@@H](CCCCN)C(=O)N[C@@H](CCC(N)=O)C(=O)N[C@@H](CCC(=O)O)C(=O)N[C@@H](CCCNC(=N)N)C(=O)N[C@@H](CCC(N)=O)C(=O)N[C@@H](CCCCN)C(=O)N[C@@H](CCCCN)C(=O)N[C@@H](CCC(N)=O)C(=O)N[C@@H](CCCNC(=N)N)C(=O)N[C@@H](CCC(=O)O)C(=O)N[C@@H](CCC(N)=O)C(=O)N[C@@H](C)C(=O)N[C@@H](CCC(=O)O)C(=O)N[C@@H](CCCCN)C(=O)N[C@@H](CC(N)=O)C(=O)N[C@@H](CCCCN)C(=O)N[C@@H](CCC(N)=O)C(=O)N[C@H](C(=O)N[C@@H](CC(C)C)C(=O)N[C@@H](CCC(=O)O)C(=O)N[C@@H](CCC(N)=O)C(=O)N[C@H](C(N)=O)C(C)C)[C@@H](C)CC)[C@@H](C)CC)[C@@H](C)CC)C(C)C)C(C)C
B2: SEQ ID NO: 135 (peptide)
peptide: IVLSLD[dV]PIKLK([AEEA-AEEA-γGlu-C18 diacid])QILLKQERQK[Aib]QRQQAEKNKQILAQV-NH2
modifications: N-terminus assumed
SMILES: CC[C@H](C)[C@H](N)C(=O)N[C@H](C(=O)N[C@@H](CC(C)C)C(=O)N[C@@H](CO)C(=O)N[C@@H](CC(C)C)C(=O)N[C@@H](CC(=O)O)C(=O)N[C@@H](C(=O)N1CCC[C@H]1C(=O)N[C@H](C(=O)N[C@@H](CCCCN)C(=O)N[C@@H](CC(C)C)C(=O)N[C@@H](CCCCNC(=O)COCCOCCNC(=O)COCCOCCNC(=O)CC[C@H](NC(=O)CCCCCCCCCCCCCCCCC(=O)O)C(=O)O)C(=O)N[C@@H](CCC(N)=O)C(=O)N[C@H](C(=O)N[C@@H](CC(C)C)C(=O)N[C@@H](CC(C)C)C(=O)N[C@@H](CCCCN)C(=O)N[C@@H](CCC(N)=O)C(=O)N[C@@H](CCC(=O)O)C(=O)N[C@@H](CCCNC(=N)N)C(=O)N[C@@H](CCC(N)=O)C(=O)N[C@@H](CCCCN)C(=O)NC(C)(C)C(=O)N[C@@H](CCC(N)=O)C(=O)N[C@@H](CCCNC(=N)N)C(=O)N[C@@H](CCC(N)=O)C(=O)N[C@@H](CCC(N)=O)C(=O)N[C@@H](C)C(=O)N[C@@H](CCC(=O)O)C(=O)N[C@@H](CCCCN)C(=O)N[C@@H](CC(N)=O)C(=O)N[C@@H](CCCCN)C(=O)N[C@@H](CCC(N)=O)C(=O)N[C@H](C(=O)N[C@@H](CC(C)C)C(=O)N[C@@H](C)C(=O)N[C@@H](CCC(N)=O)C(=O)N[C@H](C(N)=O)C(C)C)[C@@H](C)CC)[C@@H](C)CC)[C@@H](C)CC)C(C)C)C(C)C
B3: SEQ ID NO: 139 (peptide)
peptide: IVLSLD[dV]PIKLK([AEEA-AEEA-γGlu-C18 diacid])QILLKQERQKKQRQQAEKNKQILAQV-NH2
modifications: N-terminus assumed
SMILES: CC[C@H](C)[C@H](N)C(=O)N[C@H](C(=O)N[C@@H](CC(C)C)C(=O)N[C@@H](CO)C(=O)N[C@@H](CC(C)C)C(=O)N[C@@H](CC(=O)O)C(=O)N[C@@H](C(=O)N1CCC[C@H]1C(=O)N[C@H](C(=O)N[C@@H](CCCCN)C(=O)N[C@@H](CC(C)C)C(=O)N[C@@H](CCCCNC(=O)COCCOCCNC(=O)COCCOCCNC(=O)CC[C@H](NC(=O)CCCCCCCCCCCCCCCCC(=O)O)C(=O)O)C(=O)N[C@@H](CCC(N)=O)C(=O)N[C@H](C(=O)N[C@@H](CC(C)C)C(=O)N[C@@H](CC(C)C)C(=O)N[C@@H](CCCCN)C(=O)N[C@@H](CCC(N)=O)C(=O)N[C@@H](CCC(=O)O)C(=O)N[C@@H](CCCNC(=N)N)C(=O)N[C@@H](CCC(N)=O)C(=O)N[C@@H](CCCCN)C(=O)N[C@@H](CCCCN)C(=O)N[C@@H](CCC(N)=O)C(=O)N[C@@H](CCCNC(=N)N)C(=O)N[C@@H](CCC(N)=O)C(=O)N[C@@H](CCC(N)=O)C(=O)N[C@@H](C)C(=O)N[C@@H](CCC(=O)O)C(=O)N[C@@H](CCCCN)C(=O)N[C@@H](CC(N)=O)C(=O)N[C@@H](CCCCN)C(=O)N[C@@H](CCC(N)=O)C(=O)N[C@H](C(=O)N[C@@H](CC(C)C)C(=O)N[C@@H](C)C(=O)N[C@@H](CCC(N)=O)C(=O)N[C@H](C(N)=O)C(C)C)[C@@H](C)CC)[C@@H](C)CC)[C@@H](C)CC)C(C)C)C(C)C
B4: SEQ ID NO: 138 (peptide)
peptide: IVLSLD[dV]PIKLK([AEEA-AEEA-γGlu-C18 diacid])QILLKQERQKKQREKAEKNKQILAQV-NH2
modifications: N-terminus assumed
SMILES: CC[C@H](C)[C@H](N)C(=O)N[C@H](C(=O)N[C@@H](CC(C)C)C(=O)N[C@@H](CO)C(=O)N[C@@H](CC(C)C)C(=O)N[C@@H](CC(=O)O)C(=O)N[C@@H](C(=O)N1CCC[C@H]1C(=O)N[C@H](C(=O)N[C@@H](CCCCN)C(=O)N[C@@H](CC(C)C)C(=O)N[C@@H](CCCCNC(=O)COCCOCCNC(=O)COCCOCCNC(=O)CC[C@H](NC(=O)CCCCCCCCCCCCCCCCC(=O)O)C(=O)O)C(=O)N[C@@H](CCC(N)=O)C(=O)N[C@H](C(=O)N[C@@H](CC(C)C)C(=O)N[C@@H](CC(C)C)C(=O)N[C@@H](CCCCN)C(=O)N[C@@H](CCC(N)=O)C(=O)N[C@@H](CCC(=O)O)C(=O)N[C@@H](CCCNC(=N)N)C(=O)N[C@@H](CCC(N)=O)C(=O)N[C@@H](CCCCN)C(=O)N[C@@H](CCCCN)C(=O)N[C@@H](CCC(N)=O)C(=O)N[C@@H](CCCNC(=N)N)C(=O)N[C@@H](CCC(=O)O)C(=O)N[C@@H](CCCCN)C(=O)N[C@@H](C)C(=O)N[C@@H](CCC(=O)O)C(=O)N[C@@H](CCCCN)C(=O)N[C@@H](CC(N)=O)C(=O)N[C@@H](CCCCN)C(=O)N[C@@H](CCC(N)=O)C(=O)N[C@H](C(=O)N[C@@H](CC(C)C)C(=O)N[C@@H](C)C(=O)N[C@@H](CCC(N)=O)C(=O)N[C@H](C(N)=O)C(C)C)[C@@H](C)CC)[C@@H](C)CC)[C@@H](C)CC)C(C)C)C(C)C
B5: SEQ ID NO: 136 (peptide)
peptide: IVLSLD[dV]PIKLK([AEEA-AEEA-γGlu-C18 diacid])QILLKQERQKK[Aib]RQKAEKNKQILAQV-NH2
modifications: N-terminus assumed
SMILES: CC[C@H](C)[C@H](N)C(=O)N[C@H](C(=O)N[C@@H](CC(C)C)C(=O)N[C@@H](CO)C(=O)N[C@@H](CC(C)C)C(=O)N[C@@H](CC(=O)O)C(=O)N[C@@H](C(=O)N1CCC[C@H]1C(=O)N[C@H](C(=O)N[C@@H](CCCCN)C(=O)N[C@@H](CC(C)C)C(=O)N[C@@H](CCCCNC(=O)COCCOCCNC(=O)COCCOCCNC(=O)CC[C@H](NC(=O)CCCCCCCCCCCCCCCCC(=O)O)C(=O)O)C(=O)N[C@@H](CCC(N)=O)C(=O)N[C@H](C(=O)N[C@@H](CC(C)C)C(=O)N[C@@H](CC(C)C)C(=O)N[C@@H](CCCCN)C(=O)N[C@@H](CCC(N)=O)C(=O)N[C@@H](CCC(=O)O)C(=O)N[C@@H](CCCNC(=N)N)C(=O)N[C@@H](CCC(N)=O)C(=O)N[C@@H](CCCCN)C(=O)N[C@@H](CCCCN)C(=O)NC(C)(C)C(=O)N[C@@H](CCCNC(=N)N)C(=O)N[C@@H](CCC(N)=O)C(=O)N[C@@H](CCCCN)C(=O)N[C@@H](C)C(=O)N[C@@H](CCC(=O)O)C(=O)N[C@@H](CCCCN)C(=O)N[C@@H](CC(N)=O)C(=O)N[C@@H](CCCCN)C(=O)N[C@@H](CCC(N)=O)C(=O)N[C@H](C(=O)N[C@@H](CC(C)C)C(=O)N[C@@H](C)C(=O)N[C@@H](CCC(N)=O)C(=O)N[C@H](C(N)=O)C(C)C)[C@@H](C)CC)[C@@H](C)CC)[C@@H](C)CC)C(C)C)C(C)C
B6: SEQ ID NO: 14 (peptide)
peptide: FTLSLDVPTKIK([γGlu-Palmitoyl])QKLLKQEKQRKQKQKAKTNAKILARV-NH2
modifications: N-terminus assumed
SMILES: CCCCCCCCCCCCCCCC(=O)N[C@@H](CCC(=O)NCCCC[C@H](NC(=O)[C@@H](NC(=O)[C@H](CCCCN)NC(=O)[C@@H](NC(=O)[C@@H]1CCCN1C(=O)[C@@H](NC(=O)[C@H](CC(=O)O)NC(=O)[C@H](CC(C)C)NC(=O)[C@H](CO)NC(=O)[C@H](CC(C)C)NC(=O)[C@@H](NC(=O)[C@@H](N)Cc1ccccc1)[C@@H](C)O)C(C)C)[C@@H](C)O)[C@@H](C)CC)C(=O)N[C@@H](CCC(N)=O)C(=O)N[C@@H](CCCCN)C(=O)N[C@@H](CC(C)C)C(=O)N[C@@H](CC(C)C)C(=O)N[C@@H](CCCCN)C(=O)N[C@@H](CCC(N)=O)C(=O)N[C@@H](CCC(=O)O)C(=O)N[C@@H](CCCCN)C(=O)N[C@@H](CCC(N)=O)C(=O)N[C@@H](CCCNC(=N)N)C(=O)N[C@@H](CCCCN)C(=O)N[C@@H](CCC(N)=O)C(=O)N[C@@H](CCCCN)C(=O)N[C@@H](CCC(N)=O)C(=O)N[C@@H](CCCCN)C(=O)N[C@@H](C)C(=O)N[C@@H](CCCCN)C(=O)N[C@H](C(=O)N[C@@H](CC(N)=O)C(=O)N[C@@H](C)C(=O)N[C@@H](CCCCN)C(=O)N[C@H](C(=O)N[C@@H](CC(C)C)C(=O)N[C@@H](C)C(=O)N[C@@H](CCCNC(=N)N)C(=O)N[C@H](C(N)=O)C(C)C)[C@@H](C)CC)[C@@H](C)O)C(=O)O

target: human corticotropin-releasing factor 2α (CRF2 α receptor) (human), Q13324; assay: cell-based or functional assay
Sequence (Q13324 20-411): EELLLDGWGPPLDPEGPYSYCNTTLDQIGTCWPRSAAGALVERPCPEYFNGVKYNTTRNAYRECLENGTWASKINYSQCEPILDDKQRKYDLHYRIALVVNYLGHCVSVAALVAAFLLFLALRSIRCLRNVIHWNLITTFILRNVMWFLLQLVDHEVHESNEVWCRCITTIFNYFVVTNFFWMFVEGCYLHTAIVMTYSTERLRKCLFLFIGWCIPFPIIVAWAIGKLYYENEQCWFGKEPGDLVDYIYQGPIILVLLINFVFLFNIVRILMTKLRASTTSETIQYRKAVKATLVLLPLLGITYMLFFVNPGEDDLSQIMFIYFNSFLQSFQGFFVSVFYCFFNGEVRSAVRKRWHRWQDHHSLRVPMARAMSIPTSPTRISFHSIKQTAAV

EC50 [nM], 0% HSA | EC50 [nM], 0.1% HSA | Binder
0.04 nM | 1.78 nM | B1
0.04 nM | 1.48 nM | B2
0.03 nM | 1.31 nM | B3
0.06 nM | 3.12 nM | B4
0.05 nM | 2.41 nM | B5
0.18 nM |  | B6
